The values below come from patent US20190225650A1, “PEPTIDOMIMETIC MACROCYCLES AND USE THEREOF IN REGULATING HIF1ALPHA” (AILERON THERAPEUTICS, INC., priority 2013, published 2019).

Sequences and labels used below:
B1: SP-325 (peptide)
peptide: Ac-LLQ[S5]EEL[S5]RALDQVNIDE[S5]VL[Nle][S5]LVIE[Nle]G-NH2
modifications: staple 19-23, 4-8
SMILES: CCCC[C@H](NC(=O)[C@H](CCC(=O)O)NC(=O)[C@@H](NC(=O)[C@@H](NC(=O)[C@H](CC(C)C)NC(=O)[C@]1(C)CCCC=CCCC[C@](C)(NC(=O)[C@H](CCC(=O)O)NC(=O)[C@H](CC(=O)O)NC(=O)[C@@H](NC(=O)[C@H](CC(N)=O)NC(=O)[C@@H](NC(=O)[C@H](CCC(N)=O)NC(=O)[C@H](CC(=O)O)NC(=O)[C@H](CC(C)C)NC(=O)[C@H](C)NC(=O)[C@H](CCCNC(=N)N)NC(=O)[C@]2(C)CCCC=CCCC[C@](C)(NC(=O)[C@H](CCC(N)=O)NC(=O)[C@H](CC(C)C)NC(=O)[C@H](CC(C)C)NC(C)=O)C(=O)N[C@@H](CCC(=O)O)C(=O)N[C@@H](CCC(=O)O)C(=O)N[C@@H](CC(C)C)C(=O)N2)C(C)C)[C@@H](C)CC)C(=O)N[C@@H](C(C)C)C(=O)N[C@@H](CC(C)C)C(=O)N[C@@H](CCCC)C(=O)N1)C(C)C)[C@@H](C)CC)C(=O)NCC(N)=O
B2: SP-198 (peptide)
peptide: Ac-FIAEXVL[Nle]SLVXA[Nle]AL-NH2
modifications: staple 5-12; not fully specified (residues 5, 12); printed as Ac-FIAE-$r8-VL-Nle-SLV-$-A-Nle-AL-NH2
B3: SP-250 (peptide)
peptide: Ac-FIDQAVF[Nle][S5]LVI[S5][Nle]ALL-NH2
modifications: staple 9-13
SMILES: CCCC[C@H](NC(=O)[C@H](Cc1ccccc1)NC(=O)[C@@H](NC(=O)[C@H](C)NC(=O)[C@H](CCC(N)=O)NC(=O)[C@H](CC(=O)O)NC(=O)[C@@H](NC(=O)[C@H](Cc1ccccc1)NC(C)=O)[C@@H](C)CC)C(C)C)C(=O)N[C@@]1(C)CCCC=CCCC[C@@](C)(C(=O)N[C@@H](CCCC)C(=O)N[C@@H](C)C(=O)N[C@@H](CC(C)C)C(=O)N[C@@H](CC(C)C)C(N)=O)NC(=O)[C@H]([C@@H](C)CC)NC(=O)[C@H](C(C)C)NC(=O)[C@H](CC(C)C)NC1=O
B4: SP-28 (peptide)
peptide: Ac-FIDEEVLA[S5]LVI[S5]AALDR-NH2
modifications: staple 9-13
SMILES: CC[C@H](C)[C@H](NC(=O)[C@H](Cc1ccccc1)NC(C)=O)C(=O)N[C@@H](CC(=O)O)C(=O)N[C@@H](CCC(=O)O)C(=O)N[C@@H](CCC(=O)O)C(=O)N[C@H](C(=O)N[C@@H](CC(C)C)C(=O)N[C@@H](C)C(=O)N[C@@]1(C)CCCC=CCCC[C@@](C)(C(=O)N[C@@H](C)C(=O)N[C@@H](C)C(=O)N[C@@H](CC(C)C)C(=O)N[C@@H](CC(=O)O)C(=O)N[C@@H](CCCNC(=N)N)C(N)=O)NC(=O)[C@H]([C@@H](C)CC)NC(=O)[C@H](C(C)C)NC(=O)[C@H](CC(C)C)NC1=O)C(C)C
B5: SP-33 (peptide)
peptide: Ac-FIDEEVE[Nle][S5]LVI[S5][Nle]ALDRI-NH2
modifications: staple 9-13
SMILES: CCCC[C@H](NC(=O)[C@H](CCC(=O)O)NC(=O)[C@@H](NC(=O)[C@H](CCC(=O)O)NC(=O)[C@H](CCC(=O)O)NC(=O)[C@H](CC(=O)O)NC(=O)[C@@H](NC(=O)[C@H](Cc1ccccc1)NC(C)=O)[C@@H](C)CC)C(C)C)C(=O)N[C@@]1(C)CCCC=CCCC[C@@](C)(C(=O)N[C@@H](CCCC)C(=O)N[C@@H](C)C(=O)N[C@@H](CC(C)C)C(=O)N[C@@H](CC(=O)O)C(=O)N[C@@H](CCCNC(=N)N)C(=O)N[C@H](C(N)=O)[C@@H](C)CC)NC(=O)[C@H]([C@@H](C)CC)NC(=O)[C@H](C(C)C)NC(=O)[C@H](CC(C)C)NC1=O
B6: SP-37 (peptide)
peptide: Ac-FIDEEVL[Nle][S5]LVE[S5][Nle]ALDRI-NH2
modifications: staple 9-13
SMILES: CCCC[C@H](NC(=O)[C@H](CC(C)C)NC(=O)[C@@H](NC(=O)[C@H](CCC(=O)O)NC(=O)[C@H](CCC(=O)O)NC(=O)[C@H](CC(=O)O)NC(=O)[C@@H](NC(=O)[C@H](Cc1ccccc1)NC(C)=O)[C@@H](C)CC)C(C)C)C(=O)N[C@@]1(C)CCCC=CCCC[C@@](C)(C(=O)N[C@@H](CCCC)C(=O)N[C@@H](C)C(=O)N[C@@H](CC(C)C)C(=O)N[C@@H](CC(=O)O)C(=O)N[C@@H](CCCNC(=N)N)C(=O)N[C@H](C(N)=O)[C@@H](C)CC)NC(=O)[C@H](CCC(=O)O)NC(=O)[C@H](C(C)C)NC(=O)[C@H](CC(C)C)NC1=O
B7: SP-36 (peptide)
peptide: Ac-FIDEEVL[Nle][S5]LEI[S5][Nle]ALDRI-NH2
modifications: staple 9-13
SMILES: CCCC[C@H](NC(=O)[C@H](CC(C)C)NC(=O)[C@@H](NC(=O)[C@H](CCC(=O)O)NC(=O)[C@H](CCC(=O)O)NC(=O)[C@H](CC(=O)O)NC(=O)[C@@H](NC(=O)[C@H](Cc1ccccc1)NC(C)=O)[C@@H](C)CC)C(C)C)C(=O)N[C@@]1(C)CCCC=CCCC[C@@](C)(C(=O)N[C@@H](CCCC)C(=O)N[C@@H](C)C(=O)N[C@@H](CC(C)C)C(=O)N[C@@H](CC(=O)O)C(=O)N[C@@H](CCCNC(=N)N)C(=O)N[C@H](C(N)=O)[C@@H](C)CC)NC(=O)[C@H]([C@@H](C)CC)NC(=O)[C@H](CCC(=O)O)NC(=O)[C@H](CC(C)C)NC1=O
B8: SP-38 (peptide)
peptide: Ac-FIDEEVL[Nle][S5]LVI[S5]EALDRI-NH2
modifications: staple 9-13
SMILES: CCCC[C@H](NC(=O)[C@H](CC(C)C)NC(=O)[C@@H](NC(=O)[C@H](CCC(=O)O)NC(=O)[C@H](CCC(=O)O)NC(=O)[C@H](CC(=O)O)NC(=O)[C@@H](NC(=O)[C@H](Cc1ccccc1)NC(C)=O)[C@@H](C)CC)C(C)C)C(=O)N[C@@]1(C)CCCC=CCCC[C@@](C)(C(=O)N[C@@H](CCC(=O)O)C(=O)N[C@@H](C)C(=O)N[C@@H](CC(C)C)C(=O)N[C@@H](CC(=O)O)C(=O)N[C@@H](CCCNC(=N)N)C(=O)N[C@H](C(N)=O)[C@@H](C)CC)NC(=O)[C@H]([C@@H](C)CC)NC(=O)[C@H](C(C)C)NC(=O)[C@H](CC(C)C)NC1=O
B9: SP-34 (peptide)
peptide: Ac-FIDEEVLD[S5]LVI[S5][Nle]ALDRI-NH2
modifications: staple 9-13
SMILES: CCCC[C@H](NC(=O)[C@]1(C)CCCC=CCCC[C@](C)(NC(=O)[C@H](CC(=O)O)NC(=O)[C@H](CC(C)C)NC(=O)[C@@H](NC(=O)[C@H](CCC(=O)O)NC(=O)[C@H](CCC(=O)O)NC(=O)[C@H](CC(=O)O)NC(=O)[C@@H](NC(=O)[C@H](Cc2ccccc2)NC(C)=O)[C@@H](C)CC)C(C)C)C(=O)N[C@@H](CC(C)C)C(=O)N[C@@H](C(C)C)C(=O)N[C@@H]([C@@H](C)CC)C(=O)N1)C(=O)N[C@@H](C)C(=O)N[C@@H](CC(C)C)C(=O)N[C@@H](CC(=O)O)C(=O)N[C@@H](CCCNC(=N)N)C(=O)N[C@H](C(N)=O)[C@@H](C)CC
B10: SP-35 (peptide)
peptide: Ac-FIDEEVL[Nle][S5]DVI[S5][Nle]ALDRI-NH2
modifications: staple 9-13
SMILES: CCCC[C@H](NC(=O)[C@H](CC(C)C)NC(=O)[C@@H](NC(=O)[C@H](CCC(=O)O)NC(=O)[C@H](CCC(=O)O)NC(=O)[C@H](CC(=O)O)NC(=O)[C@@H](NC(=O)[C@H](Cc1ccccc1)NC(C)=O)[C@@H](C)CC)C(C)C)C(=O)N[C@@]1(C)CCCC=CCCC[C@@](C)(C(=O)N[C@@H](CCCC)C(=O)N[C@@H](C)C(=O)N[C@@H](CC(C)C)C(=O)N[C@@H](CC(=O)O)C(=O)N[C@@H](CCCNC(=N)N)C(=O)N[C@H](C(N)=O)[C@@H](C)CC)NC(=O)[C@H]([C@@H](C)CC)NC(=O)[C@H](C(C)C)NC(=O)[C@H](CC(=O)O)NC1=O
B11: SP-39 (peptide)
peptide: Ac-FIDEEVL[Nle][S5]LVI[S5][Nle]ELDRI-NH2
modifications: staple 9-13
SMILES: CCCC[C@H](NC(=O)[C@H](CC(C)C)NC(=O)[C@@H](NC(=O)[C@H](CCC(=O)O)NC(=O)[C@H](CCC(=O)O)NC(=O)[C@H](CC(=O)O)NC(=O)[C@@H](NC(=O)[C@H](Cc1ccccc1)NC(C)=O)[C@@H](C)CC)C(C)C)C(=O)N[C@@]1(C)CCCC=CCCC[C@@](C)(C(=O)N[C@@H](CCCC)C(=O)N[C@@H](CCC(=O)O)C(=O)N[C@@H](CC(C)C)C(=O)N[C@@H](CC(=O)O)C(=O)N[C@@H](CCCNC(=N)N)C(=O)N[C@H](C(N)=O)[C@@H](C)CC)NC(=O)[C@H]([C@@H](C)CC)NC(=O)[C@H](C(C)C)NC(=O)[C@H](CC(C)C)NC1=O

Bridge positions count the residues as written; N and C are the ends. Square brackets hold non-standard residues; d marks the D form. S5 = C=CCCC[C@](C)(N)C(=O)O; Nle = CCCC[C@H](N)C(=O)O

In this test the target is T1, His6-tagged p300 (AA 323-423) (UniProt Q09472 323-423).
T1 construct: range 323-423; also called p300-CH; not shown: His6 tag
T1 sequence (Q09472 323-423 limits assumed): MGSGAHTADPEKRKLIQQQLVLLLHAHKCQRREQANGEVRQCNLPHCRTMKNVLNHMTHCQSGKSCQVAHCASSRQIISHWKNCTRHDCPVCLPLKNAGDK
The test can be described thus: TR-FRET HIF1a/p300 displacement; grade = IC50 >700 nM. The method, then:
The ability of peptides to displace HIF1α c-terminal trans-activation domain from p300-CH was measured by a TR FRET assay. […] The complex was diluted to 300 nM final in complete assay media and competitor peptides were added. The complete assay media contained 150 mM NaCl (Sigma +S5150 or equivalent), 20 mM HEPES pH 7.4 (Boston Bioproducts, Ashland, Mass.; #BB-2076), 7.5 mM CHAPS (Thermo #28300 or equivalent), and 1 mM DTT. Protein and peptide were incubated at room temperature for 1 hour before the addition of anti-Flag-K and anti-6×HIS-D2 (CisBio, Bedford Mass.) HTRF reconstitution buffer (50 mM Phosphate pH 7, 0.8 Potassium Flouride, BSA 0.2%)¹ to a final concentration of 0.5 μM and 4 nM respectively. The reaction continued for an additional two hours at room temperature. The reaction was read on a TECAN F500 plate reader with settings recommended by CisBio. The ratio of donor to acceptor fluorescence was calculated. The resulting data was analyzed with Graphpad Prism 5.0. IC50 values were calculated for both proteins using the One Site Fit-LogIC50 equation and presented in the column “IC₅₀ (nM) (HIF1α_p300 Displacement+CHAPS)” of Table 6. ¹ Cisbio USA, Bedford, Mass.; 61HISDLB (lot 007A), 61FG2KLB (024A), HTRF Buffer (62RB3RDF)
(In general: In TR-FRET formats the signal depends on donor and acceptor labels being close together.)
For the molecule B1, the IC50 was > 700 nM.

Consider B2, for which the IC50 is > 700 nM.

Regarding B3, the IC50 is > 700 nM.

As to B4, the concentration for half-maximal inhibition (IC50) was > 700 nM.

As for B5, the concentration for half-maximal inhibition (IC50) is > 700 nM.

As for B6, the IC50 is > 700 nM.

With B7, the IC50 is > 700 nM.

On to B8, for which the IC50 was > 700 nM.

For the molecule B9, the half-maximal inhibitory concentration (IC50) was > 700 nM.

B10: the half-inhibitory concentration (IC50) is > 700 nM.

With B11, the IC50 is > 700 nM.

As a reminder, the IC50 is the concentration that gives 50% inhibition. A higher IC50 goes with weaker potency in that assay.
